Experimental data reported in patent US20100256055A1 (ANGIOCHEM, published 2010).
Square brackets hold non-standard residues; d marks the D form. pGlu = O=C1CC[C@@H](C(=O)O)N1

Tests used:
[1] = target: NT receptor NTSR1 (high affinity NTSR1 receptor) on HT29 cells (human) (UniProt P30989); assay: competition with [3H]-NT on HT29 cells expressing NTSR1
[2] = target: T1, NT receptor NTSR1 (high affinity NTSR1 receptor) on HT29 cells (human, UniProt P30989 1-418); assay: as above
T1 construct: whole, on cells; also called neurotensin receptor type 1; NTR1
T1 sequence (P30989 whole entry): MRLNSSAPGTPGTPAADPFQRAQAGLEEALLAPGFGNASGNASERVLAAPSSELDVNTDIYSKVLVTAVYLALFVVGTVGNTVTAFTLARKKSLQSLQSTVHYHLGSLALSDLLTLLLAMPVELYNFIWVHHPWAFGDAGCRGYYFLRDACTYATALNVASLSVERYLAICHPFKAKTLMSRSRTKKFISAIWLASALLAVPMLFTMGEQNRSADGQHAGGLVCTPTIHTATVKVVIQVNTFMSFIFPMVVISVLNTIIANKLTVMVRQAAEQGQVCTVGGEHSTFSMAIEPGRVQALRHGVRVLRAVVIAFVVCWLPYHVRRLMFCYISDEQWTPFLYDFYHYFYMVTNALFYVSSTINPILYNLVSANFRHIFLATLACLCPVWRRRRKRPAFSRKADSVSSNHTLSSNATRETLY

Chain of NT receptor NTSR1 (high affinity NTSR1 receptor) on HT29 cells (human) (P30989 whole entry): as above

IC50 [1]	fold weaker binding than native NT [1]	IC50 [2]	Molecule
5390 nM	> 1000 fold		Ac-Lys-[D-Tyr^11]NT(8-13) (Ac-KRRPD-YIL-OH) (peptide)
		1.3 nM	[pGlu]KRRPYIL-OH (SMILES CC[C@H](C)[C@H](NC(=O)[C@H](Cc1ccc(O)cc1)NC(=O)[C@@H]1CCCN1C(=O)[C@H](CCCNC(=N)N)NC(=O)[C@H](CCCNC(=N)N)NC(=O)[C@H](CCCCN)NC(=O)[C@@H]1CCC(=O)N1)C(=O)N[C@@H](CC(C)C)C(=O)O, Structure printed only as drawing CHEM-US-00006; The chain is built from the name, and Mw 1056.26 fits pGlu-KRRPYIL; also called pE-Lys-NT(8-13); pGlu-NT(8-13)) [pGlu-LysNT(8-13)]
		1 nM	Ac-KRRPYIL-OH (Structure printed only as drawing CHEM-US-00004; The chain is built from the name, and Mw 987.20 fits Ac-KRRPYIL) [Ac-LysNT(8-13)]
